Experimental data as given in patent US20210332382A1.

B1: PEP1455 = KKKKKK-… (6K-MAGE-A3 peptide, MAGE-A3 161-180 with a 6-lysine tail at the amino terminus) (peptide)
peptide: KKKKKKVFGIELMEVDPIGHLYIFAT
B2: PEP1508 = KKKKKK-… (6K-NY-ESO-1 peptide p91-110, NY-ESO-1 91-110 with a 6-lysine tail at the amino terminus) (peptide)
peptide: KKKKKKYLAMPFATPMEAELARRSLA
B3: PEP1456 = …-… (9K-MAGE-A3 peptide, MAGE-A3 161-180 with a 9-lysine tail at the amino terminus) (peptide)
peptide: KKKKKKKKKVFGIELMEVDPIGHLYIFAT

target: Adenovirus delta 24, serotype 5 virus with a modified knob from serotype 3 adenovirus (AdV 5/3), whole virus particles; assay: MP-SPR, peptide over AdV on APTES sensor, water, Min (after flush, no peptide in solution)

Binder	Adsorbed Peptides SPR response	Mass Peptide	Mass/Area Peptide	Moles peptide
B1	0.0674 Δ°	0.32 ng	40.4 ng/cm^2	1.05e-13 mol
B2	0.0184 Δ°	0.09 ng	11 ng/cm^2	2.88e-14 mol
B3	0.029 Δ°	0.14 ng	17.4 ng/cm^2	4e-14 mol

target: Adenovirus delta 24, serotype 5 virus with a modified knob from serotype 3 adenovirus (AdV 5/3), whole virus particles; assay: MP-SPR, peptide over AdV on APTES sensor, A195 buffer, Min (after flush, no peptide in solution)

Binder	Adsorbed Peptides SPR response	Mass Peptide	Mass/Area Peptide	Moles peptide
B1	0.0174 Δ°	0.08 ng	10.4 ng/cm^2	2.7e-14 mol
B2	0.012 Δ°	0.06 ng	7.2 ng/cm^2	1.88e-14 mol
B3	0.276 Δ°	1.3 ng	166 ng/cm^2	3.81e-13 mol

target: Adenovirus delta 24, serotype 5 virus with a modified knob from serotype 3 adenovirus (AdV 5/3), whole virus particles; assay: MP-SPR, peptide over AdV on APTES sensor, water, Max (100 µM peptide in solution)

Binder	Adsorbed Peptides SPR response	Mass Peptide	Mass/Area Peptide	Moles peptide
B1	0.153 Δ°	0.72 ng	91.9 ng/cm^2	2.38e-13 mol
B2	0.0386 Δ°	0.18 ng	23.2 ng/cm^2	6.05e-14 mol
B3	0.13 Δ°	0.61 ng	78.2 ng/cm^2	1.8e-13 mol

target: Adenovirus delta 24, serotype 5 virus with a modified knob from serotype 3 adenovirus (AdV 5/3), whole virus particles; assay: MP-SPR, peptide over AdV on APTES sensor, A195 buffer, Max (100 µM peptide in solution)

Binder	Adsorbed Peptides SPR response	Mass Peptide	Mass/Area Peptide	Moles peptide
B1	0.078 Δ°	0.37 ng	46.8 ng/cm^2	1.21e-13 mol
B2	0.044 Δ°	0.21 ng	26.4 ng/cm^2	6.89e-14 mol
B3	0.371 Δ°	1.75 ng	223 ng/cm^2	5.12e-13 mol
